{"source": "patent US20100081792A1", "about": "(published 2010)", "key": {"human VEGF": {"biological_target": "T1, human VEGF (human, UniProt P15692-4 27-191)", "T1 construct": "also called VEGF165", "assay": "receptor binding assay, dAb cross-linked by anti-Myc tag antibody"}, "mouse VEGF": {"biological_target": "T2, mouse VEGF (mouse, UniProt Q00731-2 27-190, limits assumed)", "T2 sequence (looked up)": "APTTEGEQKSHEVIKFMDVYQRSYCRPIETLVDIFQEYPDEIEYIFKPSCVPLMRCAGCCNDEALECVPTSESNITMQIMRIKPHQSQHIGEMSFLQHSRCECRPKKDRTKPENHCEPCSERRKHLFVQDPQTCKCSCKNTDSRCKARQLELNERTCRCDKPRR", "assay": "receptor binding assay, dAb cross-linked by anti-Myc tag antibody"}}}
{"binder": "TAR15-26 (other, VH dAb; carries a Myc tag in the cross-linked assay) VH: EVQLLESGGGLVQPGGSLRLSCAASGFTFGAYPMMWVRQAPGKGLEWVSEISPSGSYTYYADSVKGRFTISRDNSKNTLYLQMNSLRAEDTAVYYCAKDPRKFDYWGQGTLVTVSS", "values": [{"measurement": "IC50", "setting": "human VEGF", "value": 3, "unit": "nM"}, {"measurement": "IC50", "setting": "mouse VEGF", "value": 10, "unit": "nM"}]}
